Test [1] has as its system serum from a patient suffering from RA. The test can be described thus: Dot-blot of peptides and fil-gst before and after PAD, serum from an RA patient. In kind it is binding, human. The note with it: after citrullination (PAD 30 minutes at 50° C.); 0.5 μg antigen per deposit; serum 1/2000. The protocol: These 2 peptides, as well as fil-gst, were citrullinated by the action of PAD, for 30 minutes at 50° C., in the same reaction medium as that indicated in Example 2. The specific conditions for each peptide, and for the fil-gst are the following: • peptide S-47-S (SEQ ID NO:3): 4 mU/μmol arginine • peptide S-35-R (SEQ ID NO:4): 2.7 mU/μmol arginine • fil-gst as indicated in Example 2.
The reactivity of each peptide and that of fil-gst, before and after action of the enzyme, towards the monoclonal antibody AHF4, and the serum from a patient suffering from RA, is compared by dot-blot.
The operating conditions are the following: • 0.5 μg by deposition of each antigen (peptides, fil-gst, acido-neutral variants of filaggrin (AVF)) • nitrocellulose treatment 45 minutes at 80° C., before immunodetection • RA serum used at the dilution of 1/2000; monoclonal antibody AHF4 used at a concentration of 0.2 μg/ml

Test [2] has as its system AFAs of the sera from patients suffering from RA. The test can be described thus: Immunoblot of citrullinated and noncitrullinated fil-gst with individual sera and purified AFAs. It is filed as binding, human. The note with it: citrullinated fil-gst; purified AFAs 4 μg/ml. The protocol:
In a first series of experiments (FIG. 4a), the reactivity of noncitrullinated fil-gst (fil-gst alone, 30 minutes at 50° C.) and fil-gst citrullinated with PAD 30 minutes at 50° C. is compared with human sera composed of: • sera from normal persons: T(2) and T(3) • sera from patients suffering from RA having high AFA titers which are detected by immunotransfer on acido-neutral variants of human filaggrin, and by indirect immunofluorescence on cryosections of rat esophagus: RA(6) and RA(8); • anti-filaggrin antibodies purified from the serum from a patient suffering from RA by affinity chromatography, on a column grafted with acido-neutral isoforms of human filaggrin: AFA.
A positive control is also carried out with the monoclonal antibody AHF2.
In a second series of experiments (FIG. 4b), the reactivity of citrullinated fil-gst is confirmed with a largest series of sera: • 4 control sera: T(4) • 4 sera from patients suffering from RA not having AFAs detected by immunotransfer or by indirect immunofluorescence: RA(4) • 9 sera from patients suffering from RA with high AFA titers (three of them (*) were also tested in the first series of experiments): RA(9) • anti-filaggrin antibodies purified by affinity chromatography, on a column grafted with the acido-neutral isoforms of filaggrin, from a pool of sera from 40 patients suffering from RA: AFA • the monoclonal antibodies AHF (1-7). […]
(In general: Immunoblotting shows a protein as a band on a membrane.)

B1: citrullinated fil-gst: fil-gst deiminated in vitro by rabbit muscle peptidylarginine deiminase (protein)
chain: QSESAHGRTGTSTGGRQGSHHKQARDSSRHSTSQEGQDTIHGHPGSSSGGRQGSHYEQLVDRSGHSGSHHSHTTSQGRSDASHGHSGSRSASRQTRNDEQSGDGSRHSGSRHHEASSRADSSGHSQVGQGQSEGPRTSRNWGSSFSQDSDSQGHSEDSERWSGSASRNHHGSAQEQLRDGSRHPRSHQEDRAGHGHSADSSRQSGTRHTQTSSGGQAASSHEQARSSAGERHGSHHQQSADSSRHSGIGHGQASSAVRDSGHRGYSGSQASDNEGHSEDSDTQSVSAHGQAGSHQQSHQESARGRSGETSGHSGSFLYQVSTHE
modifications: non-natural residues; left off: a dimerising Fc or GST
notes: fil-gst deiminated in vitro by rabbit muscle peptidylarginine deiminase
As to B1, the “recognition by the serum from the patient suffering from RA” value in test [1] is listed as “recognizes”. Also, the “reactivity of antifilaggrin autoantibodies purified by affinity chromatography from RA sera” value in test [2] is reported as “recognition of the fragments corresponding to lanes 1 to 5”.

The values above are taken from patent US6890720B1, “Antigens derived from filaggrin and their use for diagnosing rheumatoid polyarthritis” (Biomerieux, priority 1996, dated 2005).
